The source of these data is patent publication US20160347802A1 (MAX PLANCK GESELLSCHAFT ZUR FOERDERUNG DER WISSENSCHAFTEN E …, published 2016).

Series [1] deals with T1, human Netrin1, recombinant AVEXIS protein (biotinylated when immobilised) (human, UniProt O95631 25-604).
T1 construct: also called NTN1
Nature of the series: SPR, Biacore 3000, biotinylated human Netrin1 on SA chip, Draxin injected at 0-18.8 nM.
Method: (§2) Surface Plasmon Resonance (SPR) experiments were performed on a Biacore 3000 (GE Healthcare) at 25° C. using a SA sensor chip in 0.01 M HEPES, pH 7.4, 0.15 M NaCl, 0.005% Surfactant P20 (HBS-P) running buffer at a flow rate of 30 μl/min. The instrument was used according to manufacturer's instructions.

In series [2] the target is T2, biotinylated recombinant human UNC5B (human, UniProt Q8IZJ1 27-377).
T2 construct: Made in HEK293-6E and immobilised on an SA chip
The series is described as follows: SPR, UNC5B immobilised, Draxin injected at 0 to 18.75nM. Background: Surface plasmon resonance follows binding to a sensor surface in real time, without labels.
Method: as §2

In series [3] the target is T3, human Netrin-G2, AVEXIS protein (human, UniProt Q96CW9 18-507).
T3 construct: not shown: AVEXIS tag (bait or prey)
T3 sequence (looked up): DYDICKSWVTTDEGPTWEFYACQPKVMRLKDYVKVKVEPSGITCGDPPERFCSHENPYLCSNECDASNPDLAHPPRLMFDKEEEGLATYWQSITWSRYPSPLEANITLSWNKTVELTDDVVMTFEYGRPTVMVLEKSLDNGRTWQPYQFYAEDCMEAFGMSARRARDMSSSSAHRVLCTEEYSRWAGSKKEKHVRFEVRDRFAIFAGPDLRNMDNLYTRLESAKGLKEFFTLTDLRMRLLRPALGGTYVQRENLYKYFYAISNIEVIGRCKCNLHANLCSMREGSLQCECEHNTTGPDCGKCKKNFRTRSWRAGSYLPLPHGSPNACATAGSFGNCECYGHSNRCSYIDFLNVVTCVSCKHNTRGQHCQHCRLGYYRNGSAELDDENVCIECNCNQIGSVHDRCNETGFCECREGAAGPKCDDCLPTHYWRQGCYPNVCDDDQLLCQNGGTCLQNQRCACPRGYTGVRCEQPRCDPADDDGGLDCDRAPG
Nature of the series: AVEXIS, prey on bait NTNG2; white = No binding. From the text:
(§1) The Matn4-bait served as an internal prey-protein control and was used for normalization of the A486 nm values; conditioned medium (CM) serves as negative control; n=3.

For series [4], the target named is T4, human DRAXIN, AVEXIS prey or bait protein (human, UniProt Q8NBI3 26-349).
T4 sequence: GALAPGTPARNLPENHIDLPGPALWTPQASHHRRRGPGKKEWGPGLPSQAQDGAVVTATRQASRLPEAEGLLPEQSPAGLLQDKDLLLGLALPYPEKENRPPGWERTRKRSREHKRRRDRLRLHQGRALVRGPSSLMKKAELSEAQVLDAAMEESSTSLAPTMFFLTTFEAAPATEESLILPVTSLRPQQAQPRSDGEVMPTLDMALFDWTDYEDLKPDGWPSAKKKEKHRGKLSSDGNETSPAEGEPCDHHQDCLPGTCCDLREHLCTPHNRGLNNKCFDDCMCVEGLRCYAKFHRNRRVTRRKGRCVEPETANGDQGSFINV
Nature of the series: AVEXIS, prey on bait DRAXIN; white = No binding.
Excerpt: as §1

Series [5] deals with T5, Matn4 ECD, mono-biotinylated bait protein (positive control).
T5 construct: extracellular domain; also called Matn4-bait
The series is described as follows: AVEXIS, prey on bait Matn4 (+), positive control for the prey; dark = Binding.
Excerpt: as §1

Series [6] deals with the molecule itself. Nature of the series: AVEXIS, prey DRAXIN 21aa on bait DRAXIN 21aa.
Excerpt: as §1

For series [7], the target named is T6, human Netrin-4, AVEXIS protein (human, UniProt Q9HB63 19-628).
T6 construct: not shown: AVEXIS tag (bait or prey)
T6 sequence (looked up): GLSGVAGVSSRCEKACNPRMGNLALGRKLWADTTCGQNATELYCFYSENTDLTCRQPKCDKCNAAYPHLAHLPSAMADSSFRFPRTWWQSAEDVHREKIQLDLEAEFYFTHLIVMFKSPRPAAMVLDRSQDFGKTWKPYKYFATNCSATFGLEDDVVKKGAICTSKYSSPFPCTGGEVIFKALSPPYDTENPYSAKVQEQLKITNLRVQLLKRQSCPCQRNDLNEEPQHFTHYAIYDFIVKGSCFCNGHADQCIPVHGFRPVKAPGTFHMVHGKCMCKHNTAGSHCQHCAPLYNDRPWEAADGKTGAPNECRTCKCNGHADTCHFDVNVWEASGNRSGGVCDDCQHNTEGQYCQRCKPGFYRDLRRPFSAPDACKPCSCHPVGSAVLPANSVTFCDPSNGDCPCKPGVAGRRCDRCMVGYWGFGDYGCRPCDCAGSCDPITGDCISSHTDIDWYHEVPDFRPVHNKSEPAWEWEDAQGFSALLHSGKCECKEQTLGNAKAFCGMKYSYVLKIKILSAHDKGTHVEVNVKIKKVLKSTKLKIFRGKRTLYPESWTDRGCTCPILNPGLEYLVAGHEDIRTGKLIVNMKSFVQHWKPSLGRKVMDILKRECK
The series is described as follows: AVEXIS, prey on bait NTN4; white = No binding.
Excerpt: as §1

Series [8] addresses T6, human Netrin-4, AVEXIS protein. The series is described as follows: AVEXIS, prey NTN4 on bait DRAXIN 21aa.
Excerpt: as §1

Series [9] has as its target T1, human Netrin1, recombinant AVEXIS …. The series is described as follows: AVEXIS, prey on bait NTN1; dark = Binding.
Excerpt: as §1

Series [10] concerns the molecule itself. The series is described as follows: AVEXIS, prey on bait DRAXIN 21aa; white = No binding.
Excerpt: as §1

The target of series [11] is T3, human Netrin-G2, AVEXIS protein. The series is described as follows: AVEXIS, prey NTNG2 on bait DRAXIN 21aa.
Excerpt: as §1

For series [12], the target named is T7, human Netrin-G1, AVEXIS protein (human, UniProt Q9Y2I2 29-510).
T7 construct: not shown: AVEXIS tag (bait or prey)
T7 sequence (looked up): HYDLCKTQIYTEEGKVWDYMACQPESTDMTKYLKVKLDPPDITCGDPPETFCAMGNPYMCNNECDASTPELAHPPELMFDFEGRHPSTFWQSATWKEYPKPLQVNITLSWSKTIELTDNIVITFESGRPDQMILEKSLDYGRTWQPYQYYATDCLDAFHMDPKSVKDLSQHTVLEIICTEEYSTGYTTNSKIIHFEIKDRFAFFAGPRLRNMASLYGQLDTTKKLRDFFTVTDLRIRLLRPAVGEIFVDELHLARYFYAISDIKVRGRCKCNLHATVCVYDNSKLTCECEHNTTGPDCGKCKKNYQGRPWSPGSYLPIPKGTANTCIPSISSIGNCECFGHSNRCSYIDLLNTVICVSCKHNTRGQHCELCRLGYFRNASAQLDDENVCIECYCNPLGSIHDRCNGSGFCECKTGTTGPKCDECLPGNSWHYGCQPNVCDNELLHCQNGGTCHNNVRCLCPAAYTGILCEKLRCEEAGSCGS
Nature of the series: AVEXIS, prey NTNG1 on bait DRAXIN 21aa.
Excerpt: as §1

Series [13] has as its target T4, human DRAXIN, AVEXIS prey or bait …. The series is described as follows: AVEXIS, prey DRAXIN on bait DRAXIN 21aa.
Excerpt: as §1

For series [14], the target named is T2, biotinylated recombinant human UNC5B. Nature of the series: AVEXIS, prey on bait UNC5B; white = No binding.
Excerpt: as §1

Series [15] deals with T7, human Netrin-G1, AVEXIS protein. The series is described as follows: AVEXIS, prey on bait NTNG1; white = No binding.
Excerpt: as §1

Series [16] addresses T2, biotinylated recombinant human UNC5B. Nature of the series: AVEXIS, prey DRAXIN 21aa on bait UNC5B.
Excerpt: as §1

B1: recombinant human Draxin (R&D systems) (ligand)
chain: GALAPGTPARNLPENHIDLPGPALWTPQASHHRRRGPGKKEWGPGLPSQAQDGAVVTATRQASRLPEAEGLLPEQSPAGLLQDKDLLLGLALPYPEKENRPPGWERTRKRSREHKRRRDRLRLHQGRALVRGPSSLMKKAELSEAQVLDAAMEESSTSLAPTMFFLTTFEAAPATEESLILPVTSLRPQQAQPRSDGEVMPTLDMALFDWTDYEDLKPDGWPSAKKKEKHRGKLSSDGNETSPAEGEPCDHHQDCLPGTCCDLREHLCTPHNRGLNNKCFDDCMCVEGLRCYAKFHRNRRVTRRKGRCVEPETANGDQGSFINV
notes: Bought protein
On to B1, for which, in series [1], the Kd (commonly the constant that tells how readily two partners part at equilibrium) was 20 to 100 nM. Also, the binding result in [2] was “no binding (tested: 18.75 nM)”.

B2: human DRAXIN 21 amino acid Netrin binding fragment, AVEXIS prey or bait protein (peptide)
peptide: EVMPTLDMALFDWTDYEDLKP
notes: Tested in both bait and prey orientations; also called human 21 amino acid DRAXIN fragment; derived 21 amino acid peptide; not shown: AVEXIS tag (rat Cd4d3+4 and prey or bait module)
With B2, the A486nm was determined as 0.062 in [3]; 0.063 in series [4]; 0.252 in [5]; 0.063 in series [7]; 0.342 in series [9]; 0.059 in [10]. Besides, the A486nm was 0.062 in [14] and 0.066 in series [15]. Moreover, the binding result in series [6], in series [8], in series [11], in series [12], in series [13] and in series [16] was “no binding” in each case.
